Measurements from patent publication US9573987B2 (priority 2011, dated 2017).
Like-named read-outs stand apart in the source and are kept apart here. Where a SMILES comes first, the peptide text is derived from it. Bridges are numbered along the chain shown (N, C = ends). Where no end group is shown, it is not given here. Side-chain parts run from the residue outwards. [ ]: non-standard residue; d: D form. Phe(4-NH2) = Nc1ccc(C[C@H](N)C(=O)O)cc1; Aib = CC(C)(N)C(=O)O; Sar = CNCC(=O)O

Tests used:
blood glucose = assay: Comparative insulin tolerance test / insulin dose titration in mice
IR-B = IR-B (Homo sapiens, UniProt P06213); assay: In vitro activity of pegylated analogs relative to native insulin at IR-B
IR-A = IR-A (Homo sapiens, UniProt P06213); assay: In vitro activity of pegylated analogs relative to native insulin at IR-A
insulin receptor = conditions: background statement; cited from earlier work
IGF-1 receptor [1] = molecular target: T1, IGF-1 receptor (Homo sapiens, UniProt P08069); assay: IGF-1 receptor phosphorylation assay, receptor transfected HEK293 cells; type: cell-based; set-up: expressed in transfected cells; host or cells: HEK293; conditions: Table 15; read-out: Receptor Phosphorylation IGF-IR EC50
Experimental: Color development was stopped 5 min later by adding 0.05 ml 1 N HCl. Absorbance at 450 nm was measured on Titertek Multiscan MCC340 (ThermoFisher, Pittsburgh, Pa.).

[2] = tested on: human mammary epithelial cells (HMEC); assay: Human mammary epithelial cells proliferation ([14C]-thymidine); type: cell-based; conditions: Table 15; read-out: Proliferation HMEC EC50
Experimental: The plate was incubated 4 h at 37° C., 5% CO2 and 90% humidity.

[3] = molecular target: T2, insulin subtype B receptor (IR-B) (Homo sapiens, UniProt P06213); assay: Insulin subtype B receptor binding (competition binding); set-up: expressed in transfected cells; plasma membrane fragments; conditions: Table 15
IGF-1 receptor [4] = molecular target: T1, IGF-1 receptor; assay: IGF-1 receptor binding assay (competition, scintillation proximity); set-up: expressed in transfected cells; plasma membrane fragments; conditions: Table 15; read-out: Receptor Binding IGR-1R EC50
[5] = molecular target: T3, insulin subtype A receptor (IR-A) (Homo sapiens, UniProt P06213); assay: Insulin subtype A receptor phosphorylation, receptor transfected HEK293 cells; type: cell-based
T3 construct: expressed in transfected cells; host or cells: HEK293
Experimental: (§1) Color development was stopped 5 min later by adding 0.05 ml 1 N HCl. Absorbance at 450 nm was measured on Titertek Multiscan MCC340 (ThermoFisher, Pittsburgh, Pa.). […]

[6] = molecular target: T2, insulin subtype B receptor (IR-B); assay: Insulin subtype B receptor phosphorylation, receptor transfected HEK293 cells; type: cell-based; set-up: expressed in transfected cells; host or cells: HEK293
Experimental: as §1

[7] = Table 15, read-out: Receptor Phosphorylation IR-A- EC50
[8] = read-out: EC50 values (in nM), phosphorylation at the insulin subtype A receptor, experiment of FIG. 18A
[9] = Table 15, read-out: Receptor Phosphorylation IR-B EC50
[10] = read-out: EC50 values (in nM), phosphorylation at the insulin subtype B receptor, experiment of FIG. 18B

**Q.** Which “blood glucose lowering in insulin tolerance test (result in words)” value (shortened to “blood glucose lowering”) (blood glucose) does the source give for “MIU-58: dimer of two single chain analogs B1(H5,Y16,L17)25-C1-A1(N18,21) linked head to head via 20 kDa PEG (GPEHLCGAELVDALYLVCGDRGFYGYGSSSRRAPQTGIVDECCFRSCDLRRLENYCN; disulfide 18-56, 42-47, 6-43; also: dimer of two chains joined head to head (B1 N-termini) via 20 kDa PEG)” here?
**A.** Its value is “less potent than the parent compound, but is still active”.

**Q.** What about the “% Insulin Activity IR-B” value (IR-B) of the same molecule?
**A.** The value was 5.8%.

**Q.** What about the “% Insulin Activity IR-A” value (IR-A) of the same molecule?
**A.** The value was 19.7%.

**Q.** With “proinsulin: larger linear precursor of insulin with 35-residue connecting peptide” as the molecule, how does the “potency relative to native insulin” value (insulin receptor) read?
**A.** The value was 2% to 9%.

**Q.** For `CC[C@H](C)[C@H](NC(=O)CN)C(=O)N[C@H](C(=O)N[C@@H](CC(=O)O)C(=O)N[C@@H](CCC(=O)O)C(=O)N[C@@H](C)C(=O)N[C@@H](C)C(=O)N[C@@H](Cc1ccccc1)C(=O)N[C@@H](CCCNC(=N)N)C(=O)N[C@@H](CO)C(=O)N[C@@H](C)C(=O)N[C@@H](CC(=O)O)C(=O)N[C@@H](CC(C)C)C(=O)N[C@@H](CCCNC(=N)N)C(=O)N[C@@H](CCCNC(=N)N)C(=O)N[C@@H](CC(C)C)C(=O)N[C@@H](CCC(=O)O)C(=O)N[C@@H](CCSC)C(=O)N[C@@H](Cc1ccc(NC(=O)[C@H]2CCCN2C(=O)C(C)(C)N)cc1)C(=O)N[C@@H](C)C(=O)N[C@@H](C)C(N)=O)C(C)C` [AiB dPro] (H-GIVDEAAFRSADLRRLEM[Phe(4-NH2)]([dP-Aib])AA-NH2), which “Half Life (hr) 20% Plasma/PBS” value is on record?
**A.** Its value is 2.2 h.

**Q.** For `CC[C@H](C)[C@H](NC(=O)CN)C(=O)N[C@H](C(=O)N[C@@H](CC(=O)O)C(=O)N[C@@H](CCC(=O)O)C(=O)N[C@@H](C)C(=O)N[C@@H](C)C(=O)N[C@@H](Cc1ccccc1)C(=O)N[C@@H](CCCNC(=N)N)C(=O)N[C@@H](CO)C(=O)N[C@@H](C)C(=O)N[C@@H](CC(=O)O)C(=O)N[C@@H](CC(C)C)C(=O)N[C@@H](CCCNC(=N)N)C(=O)N[C@@H](CCCNC(=N)N)C(=O)N[C@@H](CC(C)C)C(=O)N[C@@H](CCC(=O)O)C(=O)N[C@@H](CCSC)C(=O)N[C@@H](Cc1ccc(NC(=O)CN(C)C(=O)[C@@H](N)CCCCN)cc1)C(=O)N[C@@H](C)C(=O)N[C@@H](C)C(N)=O)C(C)C` [K Sar] (H-GIVDEAAFRSADLRRLEM[Phe(4-NH2)]([Sar-Lys])AA-NH2), which “Half Life (hr) 20% Plasma/PBS” value is on record?
**A.** The value was 5.9 h.

**Q.** With `CC[C@H](C)[C@H](NC(=O)CN)C(=O)N[C@H](C(=O)N[C@@H](CC(=O)O)C(=O)N[C@@H](CCC(=O)O)C(=O)N[C@@H](C)C(=O)N[C@@H](C)C(=O)N[C@@H](Cc1ccccc1)C(=O)N[C@@H](CCCNC(=N)N)C(=O)N[C@@H](CO)C(=O)N[C@@H](C)C(=O)N[C@@H](CC(=O)O)C(=O)N[C@@H](CC(C)C)C(=O)N[C@@H](CCCNC(=N)N)C(=O)N[C@@H](CCCNC(=N)N)C(=O)N[C@@H](CC(C)C)C(=O)N[C@@H](CCC(=O)O)C(=O)N[C@@H](CCSC)C(=O)N[C@@H](Cc1ccc(NC(=O)[C@@H]2CCCN2C(=O)C(C)(C)N)cc1)C(=O)N[C@@H](C)C(=O)N[C@@H](C)C(N)=O)C(C)C` [AiB Pro] (H-GIVDEAAFRSADLRRLEM[Phe(4-NH2)]([Pro-Aib])AA-NH2) as the molecule, how does the “Half Life (hr) 20% Plasma/PBS” value read?
**A.** Its value is 2.1 h.

**Q.** Which results are given for “B^1(H5,Y16,L17)25-C^1(K8)-A^1(K14, N18,21) (GPEHLCGAELVDALYLVCGDRGFYGYGSSSRKAPQTGIVDECCFRSCDLKRLENYCN) [MIU-69, two 10K PEG chains, at the N-terminus and at amino acid A14]”?
**A.** % Insulin Activity IR-B (IR-B): 0.5%; % Insulin Activity IR-A (IR-A): 1.0%

B1: DP22LysC: DP22 cleaved at the lysine of CTP to produce a two chain insulin (protein)
chain 1: APPPSLPSPSRLPGPSDTPILPQEEEEERGPEHLCGAHLVDALYLVCGDRGFYSSSSRAPPPSLPSPSRLPGPSDTPILPQK
chain 2: GIVDECCHRSCDLRRLENYCN
**Q.** For B1, which EC50 (IGF-1 receptor [1]) is on record?
**A.** Its EC50 is 23 nM.

**Q.** And the EC50 [2]?
**A.** Its EC50 is 29.7 nM.

**Q.** And the EC50 [3]?
**A.** The EC50 was 3.71 nM.

**Q.** And the EC50 (IGF-1 receptor [4])?
**A.** The EC50 was 58.8 nM.

**Q.** And the EC50 [5, 7]?
**A.** The EC50 was 0.385 nM.

**Q.** What about the EC50 [5, 8] of the same molecule?
**A.** Its EC50 is 0.39 ± 0.06 nM.

**Q.** What about the EC50 [6, 9] of the same molecule?
**A.** The EC50 was 1.41 nM.

**Q.** And the EC50 [6, 10]?
**A.** The EC50 was 1.88 ± 0.52 nM.

B2: … AHLVDALYLVCGDRGFYGYGSSSRRAPQTGIVDECCHRSCDLRRLENYCN (protein, listed as Homo sapiens)
chain: MGSSSSKAPPPSLPSPSRLPGPSDTPILPQEEEEEKGPEHLCGAHLVDALYLVCGDRGFYGYGSSSRRAPQTGIVDECCHRSCDLRRLENYCN
**Q.** With B2 as the molecule, how does the EC50 (IGF-1 receptor [1]) read?
**A.** The EC50 was 26.7 nM.

**Q.** What about the “blood glucose lowering” value (blood glucose) of the same molecule?
**A.** Its value is “potent insulin receptor agonists”.

**Q.** And the EC50 (IGF-1 receptor [4])?
**A.** The EC50 was 216 nM.

**Q.** What about the EC50 [5, 7] of the same molecule?
**A.** Its EC50 is 0.985 nM.

**Q.** And the EC50 [6, 9]?
**A.** The EC50 was 4.34 nM.

B3: DP22: CTP-E5R-B chain-CTP(K)-A Chain (SEQ ID NO: 91) (protein)
chain: MGSSSSKAPPPSLPSPSRLPGPSDTPILPQEEEEERGPEHLCGAHLVDALYLVCGDRGFYSSSSRAPPPSLPSPSRLPGPSDTPILPQKGIVDECCHRSCDLRRLENYCN
modifications: single chain insulin analog
**Q.** With B3 as the molecule, how does the EC50 (IGF-1 receptor [1]) read?
**A.** Its EC50 is 269 nM.

**Q.** What about the EC50 [2] of the same molecule?
**A.** The EC50 was 431 nM.

**Q.** What about the EC50 [3] of the same molecule?
**A.** Its EC50 is 16.4 nM.

**Q.** And the EC50 (IGF-1 receptor [4])?
**A.** The EC50 was 438 nM.

**Q.** What about the EC50 [5, 7] of the same molecule?
**A.** Its EC50 is 1.25 nM.

**Q.** What about the EC50 [5, 8] of the same molecule?
**A.** The EC50 was 0.97 ± 0.17 nM.

**Q.** What about the EC50 [6, 9] of the same molecule?
**A.** The EC50 was 11.3 nM.

**Q.** What about the EC50 [6, 10] of the same molecule?
**A.** Its EC50 is 18.3 ± 10.3 nM.

B4: GEEEEEKGPEHLCGAHLVDALYLVCGDRGFYSSSSRAPPPSLPSPSRLPGPSD TPILPQKGIVDECCHRSCDLRRLENYCN (protein, listed as Homo sapiens)
chain: GEEEEEKGPEHLCGAHLVDALYLVCGDRGFYSSSSRAPPPSLPSPSRLPGPSDTPILPQKGIVDECCHRSCDLRRLENYCN
**Q.** With B4 as the molecule, how does the EC50 (IGF-1 receptor [1]) read?
**A.** Its EC50 is 379 nM.

**Q.** What about the EC50 [2] of the same molecule?
**A.** Its EC50 is 146 nM.

**Q.** And the EC50 [3]?
**A.** Its EC50 is 5.44 nM.

**Q.** And the “blood glucose lowering” value (blood glucose)?
**A.** Its value is “potent insulin receptor agonists”.

**Q.** What about the EC50 (IGF-1 receptor [4]) of the same molecule?
**A.** The EC50 was 36.9 nM.

**Q.** And the “in vitro phosphorylation activity at the insulin subtype A receptor (result in words)” value ([5]; FIGS. 21, 23)?
**A.** The value was “nearly equivalent to native hormone”.

**Q.** And the EC50 [5, 8]?
**A.** Its EC50 is 0.8 ± 0.2 nM.

**Q.** And the IC50 ([5]; read-out: Phosphorylation at Insulin Receptor Subtype A (IC50), Table 16A)?
**A.** Its IC50 is 3.12 nM.

**Q.** What about the EC50 [6, 9] of the same molecule?
**A.** Its EC50 is 4.83 nM.

**Q.** What about the EC50 [6, 10] of the same molecule?
**A.** Its EC50 is 10.6 ± 5.06 nM.

**Q.** And the IC50 ([6]; read-out: Phosphorylation at Insulin Receptor Subtype B (IC50), Table 16B)?
**A.** Its IC50 is 1.05 nM.
